Results: IntAct's records for PubMed 24462684

B1: ATP synthase subunit 9, mitochondrial (Neurospora crassa (strain ATCC 24698 / 74-OR23-1A / CBS 708.71 / DSM 1257 / FGSC 987)), P00842 (parent)
chain: MASTRVLASRLASQMAASAKVARPAVRVAQVSKRTIQTGSPLQTLKRTQMTSIVNATTRQAFQKRAYSSEIAQAMVEVSKNLGMGSAAIGLTGAGIGIGLVFAALLNGVARNPALRGQLFSYAILGFAFVEAIGLFDLMVALMAKFT
partner: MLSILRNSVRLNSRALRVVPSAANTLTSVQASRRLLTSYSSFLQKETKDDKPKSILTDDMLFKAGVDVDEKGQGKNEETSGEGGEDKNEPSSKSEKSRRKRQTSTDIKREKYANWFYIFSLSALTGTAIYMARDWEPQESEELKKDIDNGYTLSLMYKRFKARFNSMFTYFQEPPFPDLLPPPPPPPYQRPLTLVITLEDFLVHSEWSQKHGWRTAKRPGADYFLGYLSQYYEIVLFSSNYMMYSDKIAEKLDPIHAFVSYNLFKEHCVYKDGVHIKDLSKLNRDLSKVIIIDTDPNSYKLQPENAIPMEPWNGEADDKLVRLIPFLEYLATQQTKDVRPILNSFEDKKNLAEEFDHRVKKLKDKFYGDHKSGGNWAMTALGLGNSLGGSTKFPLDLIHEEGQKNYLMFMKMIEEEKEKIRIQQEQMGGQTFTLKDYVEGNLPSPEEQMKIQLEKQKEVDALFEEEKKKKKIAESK
B2: Mitochondrial import inner membrane translocase subunit TIM50 (Saccharomyces cerevisiae), Q02776 (parent)
chain: B1 partner

Variants of: B1
Conditions: with tim50_yeast TIM50, Q02776

Row | effect of a mutation on the interaction | Variant
1 | disrupting interaction | L7Q;A12Q;A16Q;A17Q

Variants of: B2
Conditions: with atp9_neucr oli

Row | effect of a mutation on the interaction | Variant
2 | disrupting interaction | MLSILRNSVRLNSRALRVVPSAANTLTSVQASRRLLTSYSSFLQKETKDDKPKSILTDDMLFKAGVDVDEKGQGKNEETSGEGGEDKNEPSSKSEKSRRKRQTSTDIKREKYANWFYIFSLSALTGTAIYMARDWEPQESEELKKDIDNGYTLSLMYKRFKARFNSMFTYFQEPPFPDLLPPPPPPPYQRPLTLVITLEDFLVHSEWSQKHGWRTAKRPGADYFLGYLSQYYEIVLFSSNYMMYSDKIAEKLDPIHAFVSYNLFKEHCVYKDGVHIKDLSKLNRDLSKVIIIDTDPNSYKLQPENAIPMEPWNGEADDKLVRLIPFLEYLATQQTKDVRPILNSFEDKKNLAEEFDHRVKKLKDKFYGDHKSGGNWAMTALGLGNSLGGSTKFPLDLIHEEGQKNYLMFMKMAEEEKEKIRIQQEQMGGQTFTLKAYVEGNLPSPEEQMKIQLEKQKEVDALFEEEKKKKKIAESK [I413A;D436A]

Variants of: B2
Conditions: with atp9_neucr oli
Remark: another data set of the same source

Row | effect of a mutation on the interaction | Variant
3 | decreasing interaction | MLSILRNSVRLNSRALRVVPSAANTLTSVQASRRLLTSYSSFLQKETKDDKPKSILTDDMLFKAGVDVDEKGQGKNEETSGEGGEDKNEPSSKSEKSRRKRQTSTDIKREKYANWFYIFSLSALTGTAIYMARDWEPQESEELKKDIDNGYTLSLMYKRFKARFNSMFTYFQEPPFPDLLPPPPPPPYQRPLTLVITLEDFLVHSEWSQKHGWRTAKRPGADYFLGYLSQYYEIVLFSSNYMMYSDKIAEKLDPIHAFVSYNLFKEHCVYKDGVHIKDLSKLNRDLSKVIIIDTDPNSYKLQPENAIPMEPWNGEADDKLVRLIPFLEYLATQQTKDVRPILNSFEDKKNLAEEFDHRVKKLKDKFYGDHKSGGNWAMTALGLGNSLGGSTKFPLDLIHEEGQKNYLMFMKMIEEEKEKIRIQQEQMGGQTFTNKDYVEGNLPSPEEQMKIQLEKQKEVDALFEEEKKKKKIAESK [L434N]

Variants of: B2
Conditions: with atp9_neucr oli
Remark: another data set of the same source

Row | effect of a mutation on the interaction | Variant
4 | decreasing interaction | MLSILRNSVRLNSRALRVVPSAANTLTSVQASRRLLTSYSSFLQKETKDDKPKSILTDDMLFKAGVDVDEKGQGKNEETSGEGGEDKNEPSSKSEKSRRKRQTSTDIKREKYANWFYIFSLSALTGTAIYMARDWEPQESEELKKDIDNGYTLSLMYKRFKARFNSMFTYFQEPPFPDLLPPPPPPPYQRPLTLVITLEDFLVHSEWSQKHGWRTAKRPGADYFLGYLSQYYEIVLFSSNYMMYSDKIAEKLDPIHAFVSYNLFKEHCVYKDGVHIKDLSKLNRDLSKVIIIDTDPNSYKLQPENAIPMEPWNGEADDKLVRLIPFLEYLATQQTKDVRPILNSFEDKKNLAEEFDHRVKKLKDKFYGDHKSGGNWAMTALGLGNSLGGSTKFPLDLIHEEGQKNYLMFMKMIAEEKEKIRIQQEQMGGQTFTLKDYVEGNLPSPEEQMKIQLEKQKEVDALFEEEKKKKKIAESK [E414A]

Variants of: B2
Conditions: with atp9_neucr oli
Remark: another data set of the same source

Row | effect of a mutation on the interaction | Variant
5 | decreasing interaction | MLSILRNSVRLNSRALRVVPSAANTLTSVQASRRLLTSYSSFLQKETKDDKPKSILTDDMLFKAGVDVDEKGQGKNEETSGEGGEDKNEPSSKSEKSRRKRQTSTDIKREKYANWFYIFSLSALTGTAIYMARDWEPQESEELKKDIDNGYTLSLMYKRFKARFNSMFTYFQEPPFPDLLPPPPPPPYQRPLTLVITLEDFLVHSEWSQKHGWRTAKRPGADYFLGYLSQYYEIVLFSSNYMMYSDKIAEKLDPIHAFVSYNLFKEHCVYKDGVHIKDLSKLNRDLSKVIIIDTDPNSYKLQPENAIPMEPWNGEADDKLVRLIPFLEYLATQQTKDVRPILNSFEDKKNLAEEFDHRVKKLKDKFYGDHKSGGNWAMTALGLGNSLGGSTKFPLDLIHEEGQKNYLMFMKMIEAEKEKIRIQQEQMGGQTFTLKDYVEGNLPSPEEQMKIQLEKQKEVDALFEEEKKKKKIAESK [E415A]
